# Laboratory results published in patent publication US20090252683A1 (Amgen, published 2009).
# No end group written: not given here. *: point of attachment. Biotin = O=C1N[C@H]2[C@H](CS[C@H]2CCCCC(=O)*)N1; linker = not defined here
# T1: biotin-linker-EFSELEQSGYYVC (human, reading uncertain; also: short linker, not given here, printed as biotin-linker-EFSELEQSGYYVC)
# T1 construct: also called 13mer peptide of human CD3 epsilon, biotinylated N-terminally; peptide (1)
# T1 peptide: {Biotin-linker}-EFSELEQSGYYVC
# T2: EFSELEQSGYYVC-biotin (human)
# T2 construct: also called 13mer peptide of human CD3 epsilon, biotinylated C-terminally; peptide (2)
# T2 peptide: EFSELEQSGYYVC-biotin
# T3: human EpCAM antigen on Kato III cells or human EpCAM transfected CHO cells (human, UniProt P16422 24-265)
# T3 construct: 137 holds only the extracellular portion; the protein stood whole on cells
# T3 sequence: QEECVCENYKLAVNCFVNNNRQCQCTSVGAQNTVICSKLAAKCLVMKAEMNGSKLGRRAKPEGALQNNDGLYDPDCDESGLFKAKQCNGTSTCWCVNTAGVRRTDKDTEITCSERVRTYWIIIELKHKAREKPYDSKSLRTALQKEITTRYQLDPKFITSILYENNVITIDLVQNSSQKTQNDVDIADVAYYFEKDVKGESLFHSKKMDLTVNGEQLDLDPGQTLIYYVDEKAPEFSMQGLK
# T4: cynomolgus EpCAM antigen on transfected CHO cells (cynomolgus, UniProt Q1WER1 24-265 (rhesus entry))
# T4 sequence: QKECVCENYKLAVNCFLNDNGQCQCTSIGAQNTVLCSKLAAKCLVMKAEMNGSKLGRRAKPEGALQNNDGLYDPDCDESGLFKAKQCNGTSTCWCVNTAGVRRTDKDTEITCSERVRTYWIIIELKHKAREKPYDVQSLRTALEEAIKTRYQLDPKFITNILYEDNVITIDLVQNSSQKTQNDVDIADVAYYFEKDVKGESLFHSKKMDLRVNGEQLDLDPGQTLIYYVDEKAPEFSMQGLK
# B1: cross-species specific anti-CD3 antibody (murine IgG1 comprising the VH chain shown in SEQ ID NO. 110 and the VL chain shown in SEQ ID NO. 168) (antibody, V domains shown)
# VH: EVQLLESGGGLVQPGGSLKLSCAASGFTFNTYAMNWVRQAPGKGLEWVARIRSKYNNYATYYADSVKDRFTISRDDSKNTAYLQMNNLKTEDTAVYYCVRHGNFGNSYVSWFAYWGQGTLVTVSS
# VL: ELVVTQEPSLTVSPGGTVTLTCRSSTGAVTTSNYANWVQQKPGQAPRGLIGGTNKRAPGTPARFSGSLLGGKAALTLSGVQPEDEAEYYCALWYSNLWVFGGGTKLTVL
# notes: full IgG with a murine gamma1 heavy chain and a kappa light chain; also called human-like cross-species specific anti-CD3 antibody; cross-species specific anti-CD3 IgG1 antibody
# B2: 2G8HL×SEQ ID NO. 12 bispecific single chain antibody (bispecific antibody)
# chain: EVQLQQSGAELVRSGASVKLSCTASGFNIKDYYLHWVKQRPEQGLEWIAWIDLENGDIKYAPKFQGKATITADTSSNTAYLQLSSLTSEDTAVYYCNPYYYGSNYDYAMDYWGQGTSVTVSSGGGGSGGGGSGGGGSDVVMTQTPLTLSVTIGQPASISCKSSQSLLYSNGKTYLNWILQRPGQSPKRLIYLVSKLDSGVPDRFTGSGSGTDFTLKISRVEAEDLGVYYCVQGTHFPLTFGAGTKLELKSGGGGSQAVVTQESALTTSPGETVTLTCRSSTGAVTTSNYANWVQEKPDHLFTGLIGGTNKRAPGVPARFSGSLIGDKAALTITGAQTEDEAIYFCALWYSNLWVFGGGTKLTVLGGGGSGGGGSGGGGSEVKLLESGGGLVQPKGSLKLSCAASGFTFNTYAMNWVRQAPGKGLEWVARIRSKYNNYATYYADSVKDRFTISRDDSQSILYLQMNNLKTEDTAMYYCVRHGNFGNSYVSWFAYWGQGTLVTVSAHHHHHH
# B3: 5-10LH×SEQ ID NO. 14 bispecific single chain antibody (bispecific antibody)
# chain: ELVMTQSPSSLTVTAGEKVTMSCKSSQSLLNSGNQKNYLTWYQQKPGQPPKLLIYWASTRESGVPDRFTGSGSGTDFTLTISSVQAEDLAVYYCQNDYSYPLTFGAGTKLEIKGGGGSGGGGSGGGGSEVQLLEQSGAELVRPGTSVKISCKASGYAFTNYWLGWVKQRPGHGLEWIGDIFPGSGNIHYNEKFKGKATLTADKSSSTAYMQLSSLTFEDSAVYFCARLRNWDEPMDYWGQGTTVTVSSGGGGSQVQLQQSGAELARPGASVKMSCKASGYTFTRSTMHWVKQRPGQGLEWIGYINPSSAYTNYNQKFKDKATLTADKSSSTAYMQLSSLTSEDSAVYYCASPQVHYDYNGFPYWGQGTLVTVSAGGGGSGGGGSGGGGSQVVLTQSPAIMSAFPGEKVTMTCSASSSVSYMNWYQQKSGTSPKRWIYDSSKLASGVPARFSGSGSGTSYSLTISSMETEDAATYYCQQWSRNPPTFGGGTKLQITHHHHHH
# B4: 5-10LH×SEQ ID NO. 12 bispecific single chain antibody (bispecific antibody)
# chain: ELVMTQSPSSLTVTAGEKVTMSCKSSQSLLNSGNQKNYLTWYQQKPGQPPKLLIYWASTRESGVPDRFTGSGSGTDFTLTISSVQAEDLAVYYCQNDYSYPLTFGAGTKLEIKGGGGSGGGGSGGGGSEVQLLEQSGAELVRPGTSVKISCKASGYAFTNYWLGWVKQRPGHGLEWIGDIFPGSGNIHYNEKFKGKATLTADKSSSTAYMQLSSLTFEDSAVYFCARLRNWDEPMDYWGQGTTVTVSSGGGGSQAVVTQESALTTSPGETVTLTCRSSTGAVTTSNYANWVQEKPDHLFTGLIGGTNKRAPGVPARFSGSLIGDKAALTITGAQTEDEAIYFCALWYSNLWVFGGGTKLTVLGGGGSGGGGSGGGGSEVKLLESGGGLVQPKGSLKLSCAASGFTFNTYAMNWVRQAPGKGLEWVARIRSKYNNYATYYADSVKDRFTISRDDSQSILYLQMNNLKTEDTAMYYCVRHGNFGNSYVSWFAYWGQGTLVTVSAHHHHHH
# Tests used:
# [1] = biological target: T1, biotin-linker-EFSELEQSGYYVC; assay: dot blot, 75 µg peptide on nitrocellulose, 3 µg/ml antibody
# Source text: (§1) To verify the epitope of the human-like cross-species specific anti-CD3 antibody fragment described in Example 16 on human CD3 epsilon, the identified binding region as determined in Experiment 18 was further analyzed by a dot-blotting assay using a 13mer peptide covering the defined binding area of amino acid residues “FSELE” on human CD3 epsilon. This peptide comprises the amino acid sequence “[…]” (SEQ ID NO. 195) of human CD3 epsilon. The peptide exists in two forms and is either biotinylated N- or C-terminally. In case of the N-terminal labelling, a short linker connects the peptide with the biotin. As described in Example 18, the antibody fragment was converted to a murine IgG format with a murine gammal heavy chain comprising the VH region as shown in SEQ ID NO. 110 and a kappa light chain comprising the VL region as shown in SEQ ID NO. 168. The dot blotting was performed as follows. The Minifold I Spot Blot System from Schleicher & Schuell was used for immobilizing the peptides on a nitrocellulose membrane (Protran BA 85, 0.45 μm). 75 μg of each peptide in 100 μl TBS were filtered through the membrane using vacuum. After the filtration step the membrane was blocked with 1×TBS/1% (w/v) blocking reagent (BM Chemiluminescence Blotting Substrate (POD) of Roche Diagnostics GmbH) for 2 h. […]
# [2] = biological target: T2, EFSELEQSGYYVC-biotin; assay: as above
# Source text: as §1
# [3] = biological target: T3, human EpCAM antigen on Kato III cells …; assay: FACS, Kato III cells (FIG. 8A), anti-His detection
# Source text: FIG. 8: FACS assay for binding of 2G8LH×SEQ ID NO. 12, 2G8LH×SEQ ID NO. 10, 2G8LH×SEQ ID NO. 16, 2G8LH×SEQ ID NO. 14, 2G8HL×SEQ ID NO. 12, 2G8HL×SEQ ID NO. 10, 2G8HL×SEQ ID NO. 16 and 2G8HL×SEQ ID NO. 14 on Kato III (FIG. 8A) cells or cynomolgus EpCAM transfected CHO cells (FIG. 8B) and HPB-ALL cells. Antigen binding was clearly detectable for the anti EpCAM specificities as well as for the anti CD3 specificities. As a negative control for binding to cynomolgus EpCAM, the 5-10LH×SEQ ID NO.
# Binding of the bifunctional constructs from cell culture supernatants or binding of purified bifunctional constructs to the human EpCAM antigen on Kato III cells or cynomolgus EpCAM transfected CHO cells and to the CD3 antigen on HPB-ALL cells was tested using an FACS assay. For that purpose 2.5×10⁵ cells were incubated with 50 μl supernatant or with 5 μg/ml of the purified constructs in 50 μl PBS with 2% FCS. The binding of the constructs was detected with an anti-His antibody (Penta-His Antibody, BSA free, obtained from Qiagen GmbH, Hilden, FRG) at 2 μg/ml in 50 μl PBS with 2% FCS. […] The samples were measured on a FACSscan (BD biosciences, Heidelberg, FRG). Antigen binding was clearly detectable for the anti EpCAM specificities as well as for the anti CD3 specificities (see FIG. 8). As a negative control for binding to cynomolgus EpCAM, the 5-10LH×SEQ ID NO. […] The 5-10LH part only binds to human EpCAM.
# [4] = biological target: cynomolgus CD3 antigen on cynomolgus PBMC / macaque T cells (Macaca fascicularis (cynomolgus), UniProt Q95LI5 22-117; Q95LI7 23-110; Q95LI8 22-103); assay: cell-based or functional assay
# [5] = biological target: T4, cynomolgus EpCAM antigen on transfected …; assay: cell-based or functional assay
# [6] = biological target: T3, human EpCAM antigen on Kato III cells …; assay: cell-based or functional assay
# cynomolgus CD3 antigen on cynomolgus PBMC / macaque T cells, sequence (Q95LI5 22-117, chain 1 of 3): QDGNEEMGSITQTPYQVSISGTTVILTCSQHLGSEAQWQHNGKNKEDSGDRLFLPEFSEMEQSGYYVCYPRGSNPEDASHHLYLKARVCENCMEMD
# cynomolgus CD3 antigen on cynomolgus PBMC / macaque T cells, sequence (Q95LI7 23-110, chain 2 of 3): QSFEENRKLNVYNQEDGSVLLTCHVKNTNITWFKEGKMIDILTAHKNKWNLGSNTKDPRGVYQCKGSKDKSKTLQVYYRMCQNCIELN
# cynomolgus CD3 antigen on cynomolgus PBMC / macaque T cells, sequence (Q95LI8 22-103, chain 3 of 3): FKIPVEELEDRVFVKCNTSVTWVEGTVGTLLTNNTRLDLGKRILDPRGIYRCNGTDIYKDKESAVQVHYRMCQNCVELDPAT
binder,measurement,setting,value
B1,binding result,[1],binds
same,binding result,[2],binds
B2,binding result,[3],binds
same,"EC50 (half maximal killing), FACS-based cytotoxicity, cynomolgus EpCAM transfected CHO target cells, cynomolgus PBMC effector cells",[4],60.4 ng/mL
same,"EC50 (half maximal killing), FACS-based cytotoxicity, cynomolgus EpCAM transfected CHO target cells, cynomolgus PBMC effector cells",[5],60.4 ng/mL
same,"EC50 (half maximal killing), FACS-based cytotoxicity, cynomolgus EpCAM transfected CHO target cells, human PBMC effector cells",[5],3.64 ng/mL
B3,"EC50 (half maximal killing), FACS-based cytotoxicity, Kato III target cells, cynomolgus PBMC effector cells",[4],0.087 ng/mL
same,"EC50 (half maximal killing), FACS-based cytotoxicity, Kato III target cells, human PBMC effector cells",[6],0.0013 ng/mL
B4,"EC50 (half maximal killing), FACS-based cytotoxicity, Kato III target cells, cynomolgus PBMC effector cells",[4],0.069 ng/mL
same,"EC50 (half maximal killing), FACS-based cytotoxicity, Kato III target cells, human PBMC effector cells",[6],0.0015 ng/mL
